This data set can be described thus: SEC; HiLoad 16/60 Superdex 75 pg; protein purified by Ni2+-NTA injected at 0.5 mM.

As to mClavGR2, the “area of the peak at 63 min (elutes as a dimer would), percent of monomer peak area” value is 6.7% vs. 25.8% of monomer peak area.
Take mMaple: the “area of the peak at 63 min (elutes as a dimer would), percent of monomer peak area” value is reported as 6.7% vs. 25.8% of monomer peak area.
